Measurements taken from PMC9633819 (Nature Communications, 2022).
Where a chain is given by its changes, count along the chain named. Where “and” joins values, the source holds several entries; their conditions need not be identical. Identical values can stand only once.

T1: contactin 1^fe HM (full ectodomain, residues 21–996), C-terminally biotinylated SPR ligand (mouse, UniProt P12960 21-996, biotin on the C-terminal biotin acceptor peptide; N-linked high mannose glycans)
T1 chain: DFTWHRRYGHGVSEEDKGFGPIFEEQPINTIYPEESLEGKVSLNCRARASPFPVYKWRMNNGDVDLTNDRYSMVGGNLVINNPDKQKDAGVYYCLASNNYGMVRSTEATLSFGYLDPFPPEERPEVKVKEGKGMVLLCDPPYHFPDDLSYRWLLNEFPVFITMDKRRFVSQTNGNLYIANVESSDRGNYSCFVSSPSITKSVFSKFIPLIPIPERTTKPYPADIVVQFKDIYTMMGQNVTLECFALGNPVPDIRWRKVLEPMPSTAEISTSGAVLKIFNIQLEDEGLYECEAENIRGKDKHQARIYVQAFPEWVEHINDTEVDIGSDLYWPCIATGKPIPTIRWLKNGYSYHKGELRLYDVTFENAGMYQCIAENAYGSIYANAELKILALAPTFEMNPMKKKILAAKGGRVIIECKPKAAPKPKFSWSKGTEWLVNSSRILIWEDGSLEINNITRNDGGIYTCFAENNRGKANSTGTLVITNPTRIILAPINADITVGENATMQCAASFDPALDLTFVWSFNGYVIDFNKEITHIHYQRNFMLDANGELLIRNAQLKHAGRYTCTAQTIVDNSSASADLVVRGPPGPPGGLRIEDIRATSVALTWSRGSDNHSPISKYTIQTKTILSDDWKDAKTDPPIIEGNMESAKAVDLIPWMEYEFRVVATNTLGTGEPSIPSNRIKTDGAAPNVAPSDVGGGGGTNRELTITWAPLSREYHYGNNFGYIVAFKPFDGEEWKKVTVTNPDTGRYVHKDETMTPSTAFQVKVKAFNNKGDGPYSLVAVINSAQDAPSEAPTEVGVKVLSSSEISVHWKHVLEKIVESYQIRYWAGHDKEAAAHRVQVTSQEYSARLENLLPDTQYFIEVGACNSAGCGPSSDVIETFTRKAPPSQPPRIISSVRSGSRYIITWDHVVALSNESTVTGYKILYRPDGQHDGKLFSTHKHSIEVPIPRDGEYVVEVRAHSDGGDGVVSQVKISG

B1: contactin 1: high mannose glycans (GnTI- HEK293) (protein)
parent chain: MKMPLLVSHLLLISLTSCLGDFTWHRRYGHGVSEEDKGFGPIFEEQPINTIYPEESLEGKVSLNCRARASPFPVYKWRMNNGDVDLTNDRYSMVGGNLVINNPDKQKDAGVYYCLASNNYGMVRSTEATLSFGYLDPFPPEERPEVKVKEGKGMVLLCDPPYHFPDDLSYRWLLNEFPVFITMDKRRFVSQTNGNLYIANVESSDRGNYSCFVSSPSITKSVFSKFIPLIPIPERTTKPYPADIVVQFKDIYTMMGQNVTLECFALGNPVPDIRWRKVLEPMPSTAEISTSGAVLKIFNIQLEDEGLYECEAENIRGKDKHQARIYVQAFPEWVEHINDTEVDIGSDLYWPCIATGKPIPTIRWLKNGYSYHKGELRLYDVTFENAGMYQCIAENAYGSIYANAELKILALAPTFEMNPMKKKILAAKGGRVIIECKPKAAPKPKFSWSKGTEWLVNSSRILIWEDGSLEINNITRNDGGIYTCFAENNRGKANSTGTLVITNPTRIILAPINADITVGENATMQCAASFDPALDLTFVWSFNGYVIDFNKEITHIHYQRNFMLDANGELLIRNAQLKHAGRYTCTAQTIVDNSSASADLVVRGPPGPPGGLRIEDIRATSVALTWSRGSDNHSPISKYTIQTKTILSDDWKDAKTDPPIIEGNMESAKAVDLIPWMEYEFRVVATNTLGTGEPSIPSNRIKTDGAAPNVAPSDVGGGGGTNRELTITWAPLSREYHYGNNFGYIVAFKPFDGEEWKKVTVTNPDTGRYVHKDETMTPSTAFQVKVKAFNNKGDGPYSLVAVINSAQDAPSEAPTEVGVKVLSSSEISVHWKHVLEKIVESYQIRYWAGHDKEAAAHRVQVTSQEYSARLENLLPDTQYFIEVGACNSAGCGPSSDVIETFTRKAPPSQPPRIISSVRSGSRYIITWDHVVALSNESTVTGYKILYRPDGQHDGKLFSTHKHSIEVPIPRDGEYVVEVRAHSDGGDGVVSQVKISGVSTLSSSLLSLLLPSLGFLVYSEF
B2: contactin 1: kifunensine on contactin 1 cells (protein)
parent chain: B1 parent chain
B3: contactin 1: kifunensine (protein)
parent chain: B1 parent chain
B4: contactin 1: kifunensine on both cell types (protein)
parent chain: B1 parent chain
B5: contactin 1^Ig1–6 (residues 21–604), high mannose glycans (domain or fragment, mouse, UniProt P12960 21-604, looked up)
chain: DFTWHRRYGHGVSEEDKGFGPIFEEQPINTIYPEESLEGKVSLNCRARASPFPVYKWRMNNGDVDLTNDRYSMVGGNLVINNPDKQKDAGVYYCLASNNYGMVRSTEATLSFGYLDPFPPEERPEVKVKEGKGMVLLCDPPYHFPDDLSYRWLLNEFPVFITMDKRRFVSQTNGNLYIANVESSDRGNYSCFVSSPSITKSVFSKFIPLIPIPERTTKPYPADIVVQFKDIYTMMGQNVTLECFALGNPVPDIRWRKVLEPMPSTAEISTSGAVLKIFNIQLEDEGLYECEAENIRGKDKHQARIYVQAFPEWVEHINDTEVDIGSDLYWPCIATGKPIPTIRWLKNGYSYHKGELRLYDVTFENAGMYQCIAENAYGSIYANAELKILALAPTFEMNPMKKKILAAKGGRVIIECKPKAAPKPKFSWSKGTEWLVNSSRILIWEDGSLEINNITRNDGGIYTCFAENNRGKANSTGTLVITNPTRIILAPINADITVGENATMQCAASFDPALDLTFVWSFNGYVIDFNKEITHIHYQRNFMLDANGELLIRNAQLKHAGRYTCTAQTIVDNSSASADLVVRG
modifications: N-linked high mannose glycans (glycans at Asn208, Asn258 and Asn521 are named)
notes: contactin 1, mouse, domains Ig1 to Ig6, residues 21–604; template Image Clone 30099512; Vector pUPE107.03 supplies a cystatin secretion signal peptide; also called CNTN1^Ig1–6; contactin 1^Ig1–6 HM; source: HEK293-ES (GnTI−, EBNA1-expressing HEK293), secreted, purified (Ni Sepharose excel, SEC)
B6: contactin 1^fe (full ectodomain, residues 21–996), complex glycans (domain or fragment, mouse, UniProt P12960 21-996, looked up)
chain: T1 chain
modifications: N-linked complex glycans
notes: contactin 1, mouse, full ectodomain, residues 21–996; template Image Clone 30099512; Same chain as m7, other host and glycan type; also called contactin 1^fe CG; source: HEK293-E (EBNA1-expressing HEK293), secreted, purified (Ni Sepharose excel, SEC)
B7: contactin 1^fe (full ectodomain, residues 21–996), high mannose glycans (domain or fragment, mouse, UniProt P12960 21-996, looked up)
chain: T1 chain
modifications: N-linked high mannose glycans
notes: contactin 1, mouse, full ectodomain, residues 21–996; template Image Clone 30099512; Vector pUPE107.03 supplies a cystatin secretion signal peptide; also called contactin 1^fe HM; source: HEK293-ES (GnTI−, EBNA1-expressing HEK293), secreted, purified (Ni Sepharose excel, SEC)
B8: contactin 1^fe Leu279Arg, high mannose glycans (domain or fragment, mouse, UniProt P12960 21-996, looked up)
chain: T1 chain with L259R
modifications: N-linked high mannose glycans
notes: contactin 1, mouse, full ectodomain, residues 21–996, Leu279Arg; template Image Clone 30099512; also called Leu279Arg contactin 1^fe; Contactin 1^fe Leu279Arg HM
B9: neurofascin 155^Ig1–6 (residues 25–633), high mannose glycans (domain or fragment)
chain: IEIPMDLTQPPTITKQSVKDHIVDPRDNILIECEAKGNPAPSFHWTRNSRFFNIAKDPRVSMRRRSGTLVIDFRSGGRPEEYEGEYQCFARNKFGTALSNRIRLQVSKSPLWPKENLDPVVVQEGAPLTLQCNPPPGLPSPVIFWMSSSMEPITQDKRVSQGHNGDLYFSNVMLQDMQTDYSCNARFHFTHTIQQKNPFTLKVLTNNPYNDSSLRNHPDIYSARGVAERTPSFMYPQGTSSSQMVLRGMDLLLECIASGVPTPDIAWYKKGGDLPSNKAKFENFNKALRITNVSEEDSGEYFCLASNKMGSIRHTISVRVKAAPYWLDEPKNLILAPGEDGRLVCRANGNPKPTVQWMVNGEPLQSAPPNPNREVAGDTIIFRDTQISSRAVYQCNTSNEHGYLLANAFVSVLDVPPRMLSARNQLIRVILYNRTRLDCPFFGSPIPTLRWFKNGQGSNLDGGNYHVYENGSLEIKMIRKEDQGIYTCVATNILGKAENQVRLEVKDPTRIYRMPEDQVAKRGTTVQLECRVKHDPSLKLTVSWLKDDEPLYIGNRMKKEDDSLTIFGVAERDQGSYTCMASTELDQDLAKAYLTVLADQATPTNRLAA
modifications: N-linked high mannose glycans (glycans at Asn316, Asn420, Asn457 and Asn494 are named)

Experiments:
[1] = SAXS Kratky plots; conditions: glycan changed form; control: contactin 1 with complex glycans
[2] = K562 cell clustering, co-clustering ratio; conditions: glycan changed form; control: untreated contactin 1 and neurofascin 155 K562 cells
[3] = K562 cell clustering index; conditions: glycan changed form; control: untreated contactin 1 K562 cells
[4] = target: the molecule itself; assay: AUC; sedimentation velocity, c(s) distribution; higher concentration (36 µM contactin 1^Ig1–6, 22 µM contactin 1^fe), 3 mm centerpieces; 25 mM HEPES pH 7.5, 150 mM NaCl, 20 °C; abundances relative to normalized monomer abundance
[5] = target: the molecule itself; assay: AUC; sedimentation velocity, c(s) distribution; low concentration (9 µM contactin 1^Ig1–6, 5 µM contactin 1^fe), 12 mm centerpieces; 25 mM HEPES pH 7.5, 150 mM NaCl, 20 °C; abundances relative to normalized monomer abundance
[6] = target: the molecule itself; assay: native MS; 2.5 µM protein in 150 mM ammonium acetate pH 7.5; static nano-electrospray, LCT time-of-flight
[7] = target: contactin 1^Ig1–6 HM, C-terminally biotinylated SPR ligand (mouse) (UniProt P12960); assay: SPR; SPR imaging (MX96 SPRi); C-terminally biotinylated contactin 1 ligands spotted on a P-STREP SensEye chip, neurofascin 155^Ig1–6 as analyte; 25 °C; 25 mM HEPES pH 7.5, 150 mM NaCl with 0.005% Tween-20; equilibrium response fitted with a 1:1 Langmuir model
[8] = target: T1, contactin 1^fe HM (full ectodomain, …); assay: SPR
[9] = target: neurofascin 155^Ig1–6 (residues 25–633), high mannose glycans (mouse); assay: SEC-MALS + other: SAXS; dimer to monomers; estimate from the concentration dependence of peak position, molecular weight and Rg; 25 mM HEPES pH 7.5, 150 mM NaCl

Binder | Dimer abundance (%) [4] [%] | Dimer abundance (%) [5] [%] | Trace amounts higher order species [5] [%] | Trimer abundance (%) [5] [%] | stoichiometry N [6] | Trimer abundance (%) [4] [%] | other results
B1 |  |  |  |  |  |  | structure_or_conformation [1]: no change
B2 |  |  |  |  |  |  | other: heterophilic cell co-clustering [2]: increases
B3 |  |  |  |  |  |  | other: homophilic cell clustering [3]: no change
B4 |  |  |  |  |  |  | other: heterophilic cell co-clustering [2]: no change
B5 | 0.1 | 2.4 | 0.6 | 0.8 |  |  | 
B6 | 9.8 | 9.9 | 4.6 | 3.4 | 2 | 4 | 
B7 | 2.9 | 11.7 |  | 1.8 | 2 | 0.3 | 
B8 | 5.7 | 7.3 | 1.4 | 8.7 | ≤ 6 | 6.7 | 
B9 |  |  |  |  |  |  | Kd [7]: 220 nM; Kd [8]: 270 nM and 310 nM; Kd [9]: 5 to 30 µM
